Assay [1] concerns the target recombinant murine 18.5-kDa myelin basic protein, C1 charge isomer analogue (rmC1) (mouse) (UniProt P04370). Briefly: ITC; CaM (100 µM) in the syringe titrated into rmMBP (5 µM) in the cell; 20 mM HEPES pH 7.5, 100 mM NaCl, 10 mM CaCl2; one-site model with floating, apparent stoichiometry; +20°C.
Assay [2] addresses recombinant murine 18.5-kDa myelin basic protein, pseudodeiminated C8 charge isomer analogue (rmC8) (mouse). The description is as above.
In assay [3] the target is recombinant murine 18.5-kDa myelin basic protein, C1 charge isomer analogue (rmC1) (mouse) (UniProt P04370). Briefly: ITC; CaM (100 µM) in the syringe titrated into rmMBP (5 µM) in the cell; 20 mM HEPES pH 7.5, 100 mM NaCl, 10 mM CaCl2; one-site model with floating, apparent stoichiometry; +30°C.
In assay [4] the target is recombinant murine 18.5-kDa myelin basic protein, pseudodeiminated C8 charge isomer analogue (rmC8) (mouse). Described as above.
Assay [5] deals with recombinant murine 18.5-kDa myelin basic protein, C1 charge isomer analogue (rmC1) (mouse) (UniProt P04370). Put plainly: SEC; Superdex 200 HR 10/30, room temperature; 20 mM HEPES pH 7.5, 100 mM NaCl, 10 mM CaCl2; rmMBP 25 µM with CaM 12.5-125 µM (rmMBP:CaM 2:1, 1:1, 1:2, 1:3, 1:5).
Assay [6] deals with recombinant murine 18.5-kDa myelin basic protein, pseudodeiminated C8 charge isomer analogue (rmC8) (mouse). The assay is described as above.
The target of assay [7] is recombinant murine 18.5-kDa myelin basic protein, C1 charge isomer analogue (rmC1) (mouse) (UniProt P04370). Briefly: ITC; CaM (100 µM) in the syringe titrated into rmMBP (5 µM) in the cell; 20 mM HEPES pH 7.5, 100 mM NaCl, 10 mM CaCl2; one-site model with floating, apparent stoichiometry; +25°C.
For assay [8], the target named is recombinant murine 18.5-kDa myelin basic protein, pseudodeiminated C8 charge isomer analogue (rmC8) (mouse). The description is as above.
Assay [9] has as its target recombinant murine 18.5-kDa myelin basic protein, C1 charge isomer analogue (rmC1) (mouse) (UniProt P04370). Put plainly: ITC; CaM (100 µM) in the syringe titrated into rmMBP (5 µM) in the cell; 20 mM HEPES pH 7.5, 100 mM NaCl, 10 mM CaCl2; one-site model with floating, apparent stoichiometry; 35°C (temperature from Table 3).
The target of assay [10] is recombinant murine 18.5-kDa myelin basic protein, pseudodeiminated C8 charge isomer analogue (rmC8) (mouse). The assay is described as above.
For assay [11], the target named is recombinant murine 18.5-kDa myelin basic protein, C1 charge isomer analogue (rmC1) (mouse) (UniProt P04370). Briefly: ITC; CaM (100 µM) in the syringe titrated into rmMBP (5 µM) in the cell; 20 mM HEPES pH 7.5, 100 mM NaCl, 10 mM CaCl2; one-site model with floating, apparent stoichiometry; +15°C.
Assay [12] addresses recombinant murine 18.5-kDa myelin basic protein, pseudodeiminated C8 charge isomer analogue (rmC8) (mouse). The assay is described as above.
A further assay addresses calmodulin (UniProt P0DP23). To be noted: cited from earlier work.

Chain of recombinant murine 18.5-kDa myelin basic protein, C1 charge isomer analogue (rmC1) (mouse) (P04370 other isoform, or with tags, fused parts or gaps): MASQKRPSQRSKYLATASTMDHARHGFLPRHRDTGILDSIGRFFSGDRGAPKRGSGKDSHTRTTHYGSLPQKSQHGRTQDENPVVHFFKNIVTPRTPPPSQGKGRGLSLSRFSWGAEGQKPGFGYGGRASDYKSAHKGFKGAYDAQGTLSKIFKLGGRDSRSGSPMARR

For “calmodulin (CaM), recombinant (from UniProt P0DP23 1-149) (natural protein)”, the stoichiometry N in [1] was 1.5; in assay [2], 1.3; in [3], 1.4; in assay [4], 1; in [5] it was 2; in assay [6] it was 2. Moreover, the stoichiometry N in assay [7] was found to be 1.9; in assay [8], 1.2; in [9], 0.9; in assay [10] it was 0.8; in assay [11], 1.5; in [12], 1.5. Also, the Kd is 1900 nM in assay [10] and 1200 nM in [12].

In the case of “myelin basic protein (brain) (from UniProt P02687)”, the Kd in the assay with calmodulin is 10 nM.

Source of the values: article PMC3102069, “Charge Isomers of Myelin Basic Protein: Structure and Interactions with Membranes, Nucleotide Analogues, and Calmodulin” (PLoS ONE, 2011).
